Measured values as given in patent US20190153097A1.

Target: Cynomolgus/Rhesus CTLA-4 (cynomolgus/rhesus)
Assay: ELISA with Cynomolgus/Rhesus CTLA-4 titrated (said to be similar to the mouse CTLA-4 ELISA with coated antibodies)

EC50 (read off the curve): 0.2 nM
Substance: ipilimumab (human anti-huCTLA-4 marketed as Yervoy) (antibody)
